pEC50: −log10 of the molar value.
Tests used:
UG37 gp140 (HIV-1) [1] = experiment: ELISA; gp140 coated at 2 ug/ml (2 hr, 37 C); CD4-IgG2 titrated, 2 hr at RT; detected with anti-human-IgG-HRP; one-site binding fit, EC50 at 50% of maximum binding
UG37 gp140 (HIV-1) [2] = experiment: SEC; Superdex200 26/60; trimer peak after Talon, re-run after GNA-lectin capture

Substance | pEC50 (UG37 gp140 (HIV-1) [1]) | stoichiometry N (UG37 gp140 (HIV-1) [2])
CD4-IgG2 (from UniProt P01730 26-458) (Fc fusion) | 9.74 | –
UG37 gp140 (domain or fragment) | – | 3

— article PMC4260879
